B1: UBE2W-131Δ (truncation following Y131) (domain or fragment, human, UniProt Q96B02 1-131, looked up)
chain: MASMQKRLQKELLALQNDPPPGMTLNEKSVQNSITQWIVDMEGAPGTLYEGEKFQLLFKFSSRYPFDSPQVMFTGENIPVHPHVYSNGHICLSILTEDWSPALSVQSVCLSIISMLSSCKEKRRPPDNSFY

How the values were obtained:
UBE2W-WT (human) = UBE2W-WT (human) (UniProt Q96B02); assay: SEC
SEC = target: the molecule itself; assay: SEC

Molecule | stoichiometry N (UBE2W-WT (human)) | stoichiometry N (SEC)
UBE2W-WT (from UniProt Q96B02 1-151) (enzyme) | 2 | –
B1 | – | 2

Source: article PMC3758794 (Cell biochemistry and biophysics, 2013)
